Columns and labels:
[1] = biological target: C3d^A4H-C3d^W41A heterodimer (human)
[2] = biological target: human C3d^17A (monomeric) (human); assay: near-UV circular dichroism thermal melt; 87.5 µM C3d^17C or C3d^17A alone or with an equimolar concentration of the Sbi construct, 10 mM sodium phosphate pH 7.4, 250-320 nm, 5°C to 85°C; Tm from Boltzmann sigmoidal fits at 280 and 296 nm

truncated Sbi-IV mutant Sbi-IV^V198-D208del (from UniProt Q2FVK5 198-266) (domain or fragment)
change in tryptophan fluorescence intensity of the C3d^A4H/C3d^W41A solution (100 µM, equimolar Sbi construct, excitation 295 nm), read as N-terminal helix swap [1]: 2.5%
increase in melting temperature (Tm) of C3d^17A [2]: 6.5 °C

Sbi domains III and IV (wild-type Sbi-III-IV) (from UniProt Q2FVK5 150-266) (domain or fragment)
increase in tryptophan fluorescence intensity of the C3d^A4H/C3d^W41A solution (100 µM, equimolar Sbi construct, excitation 295 nm), read as N-terminal helix swap [1]: 17%

Sbi domain IV (wild-type Sbi-IV) (from UniProt Q2FVK5 198-266) (domain or fragment)
increase in tryptophan fluorescence intensity of the C3d^A4H/C3d^W41A solution (100 µM, equimolar Sbi construct, excitation 295 nm), read as N-terminal helix swap [1]: 27%

Reference: publication PMC9174452
